Assay in all cases: cell_activity
Data set [1] relates to AAT 37-38L.175 meganuclease (synthetic construct (I-CreI derived)?). Particulars: HEK293, 25 ng RNA.
The subject of data set [2] is AAT 37-38L.167 meganuclease (synthetic construct (I-CreI derived)?). Particulars: HEK293, 25 ng RNA.
The test system of data set [3] is AAT 37-38L.158 meganuclease (synthetic construct (I-CreI derived)?). Particulars: HEK293, 25 ng RNA.
Data set [4] has as its system AAT 37-38L.262 meganuclease (synthetic construct (I-CreI derived)?). The settings on record: PiZ mouse liver, LNP-A 0.5 mg/kg; 45% at low dose.
In data set [5] the test system is AAT 37-38x.61 meganuclease (synthetic construct (I-CreI derived)?). Particulars: Hep3B, day 6, 50 ng mRNA.
In data set [6] the test system is AAT 37-38L.24 meganuclease (synthetic construct (I-CreI derived)?). Particulars: HEK293, 25 ng RNA.
The subject of data set [7] is AAT 37-38x.50 meganuclease (synthetic construct (I-CreI derived)?). The settings on record: PiZ mouse liver, AAV8 delivery with repair template.
The subject of data set [8] is AAT 33-34x.13 meganuclease (synthetic construct (I-CreI derived)?). The settings on record: PiZ mouse liver, ssAAV repair (11% scAAV).
Data set [9] deals with AAT 43-44L.105 meganuclease (synthetic construct (I-CreI derived)?). The settings on record: PiZ mouse liver, AAV8 delivery with repair template.
For data set [10], the system named is AAT 43-44L.47 meganuclease (synthetic construct (I-CreI derived)?). Particulars: HEK293, 25 ng RNA.
For data set [11], the system named is AAT 43-44L.384 meganuclease (synthetic construct (I-CreI derived)?). The settings on record: HEK293, 25 ng RNA.
In data set [12] the test system is AAT 43-44L.276 meganuclease (synthetic construct (I-CreI derived)?). Particulars: HEK293, 25 ng RNA.
Data set [13] concerns AAT 43-44L.132 meganuclease (synthetic construct (I-CreI derived)?). The settings on record: HEK293, 25 ng RNA.
Data set [14] concerns AAT 43-44x.58 meganuclease (synthetic construct (I-CreI derived)?). Particulars: PiZ mouse liver, AAV8 delivery with repair template.
Data set [15] has as its system AAT 41-42L.42 meganuclease (synthetic construct (I-CreI derived)?). Particulars: HEK293, 25 ng RNA.
Data set [16] has as its system AAT 41-42L.185 meganuclease (synthetic construct (I-CreI derived)?). Particulars: HEK293, 25 ng RNA.
The test system of data set [17] is AAT 41-42x.32 meganuclease (synthetic construct (I-CreI derived)?). Particulars: Hep3B, day 6, 50 ng mRNA.
Data set [18] has as its system AAT 41-42L.153 meganuclease (synthetic construct (I-CreI derived)?). The settings on record: HEK293, 25 ng RNA.
The test system of data set [19] is AAT 41-42L.294 meganuclease (synthetic construct (I-CreI derived)?). The settings on record: HEK293, 25 ng RNA.
Data set [20] relates to AAT 41-42L.104 meganuclease (synthetic construct (I-CreI derived)?). Particulars: HEK293, 25 ng RNA.
The subject of data set [21] is AAT 9-10x.311 meganuclease (synthetic construct (I-CreI derived)?). Particulars: PiZ mouse liver, AAV8; groups 1, 3, 4 (~10% in group 2); site highly methylated.
The subject of data set [22] is AAT 35-36x.70 meganuclease (synthetic construct (I-CreI derived)?). The settings on record: PiZ mouse liver, scAAV repair (3.5% ssAAV).

Regarding “CCCCACTTTGCACAACTGGGGA (double strand) [AAT 37-38 recognition sequence]”, the activity in data set [1] worked out at 90 % indels; in [2], 86 % indels; in data set [3], 90 % indels; in [4], 53 % indels; in data set [5], 80 % indels; in data set [6], 90 % indels. For the same sequence, in data set [7], the activity is 4 % insertions.
As to “TTCAGACAGTTGCTCAACCTCT (double strand) [AAT 33-34 recognition sequence]”, the activity in data set [8] worked out at 10 % insertions.
With “AGGACCTAGATGTAGGATTCTG (double strand) [AAT 43-44 recognition sequence]”, the activity in data set [9] worked out at 14 % insertions; in [10], 52 % indels; in data set [11], 26 % indels; in [12] it was 16 % indels; in data set [13] it was 52 % indels; in data set [14], 3 % insertions.
As to “TGAGGATCCTTGTGAGTGTTGG (double strand) [AAT 41-42 recognition sequence]”, the activity in data set [15] was determined as 77 % indels; in data set [16], 20 % indels; in data set [17], 17 % indels; in [18] it was 50 % indels; in data set [19], 40 % indels; in data set [20], 50 % indels.
On to “TGCCCGCTCACACCAGACCCTG (double strand) [AAT 9-10 recognition sequence]”, for which the activity in [21] is 20 % indels.
Turning to “GGCCTGGTCACACTTGGGTTTA (double strand) [AAT 35-36 recognition sequence]”, the activity in [22] was 7.5 % insertions.

These data come from patent US20240408235.
